The values below come from patent US20160193316A1 (priority 1994, published 2016).

One test has as its target T1, DRB1*0301 (DR3) (Homo sapiens, UniProt P01903+P01911, A100K/A102G/A103R/A169T/F55Y/I96L/K41T/L162R/M171V/P40S/Q125H/Q178H/Q39Y/R42S/S66N/T106N/T262R/W38E/Y61H).
T1 construct: endogenous in cells; host or cells: MAT
In words: HLA class II peptide binding assay (pH 4.5). To be noted: unit not given.

The target in another test is T2, HLA-A*0301 (Homo sapiens, UniProt P04439).
T2 construct: endogenous in cells; host or cells: GM3107
In words: HLA class I peptide binding assay. As to conditions: for A*301 (binding data): Malaria A03 supermotif peptides; for A*0301 (binding information): Table XVI, Malaria A3 motif peptides.

The target of another test is T3, DRB1*0101 (DR1) (Homo sapiens, UniProt P01903+P01911, A100R/D57E/F55L/F60I/F76Y/I96L/L162R/M171V/P40L/Q125E/R42F/V115G/Y59C).
T3 construct: endogenous in cells; host or cells: LG2
T3 sequence (P01903 26-254 partner, other chains not shown): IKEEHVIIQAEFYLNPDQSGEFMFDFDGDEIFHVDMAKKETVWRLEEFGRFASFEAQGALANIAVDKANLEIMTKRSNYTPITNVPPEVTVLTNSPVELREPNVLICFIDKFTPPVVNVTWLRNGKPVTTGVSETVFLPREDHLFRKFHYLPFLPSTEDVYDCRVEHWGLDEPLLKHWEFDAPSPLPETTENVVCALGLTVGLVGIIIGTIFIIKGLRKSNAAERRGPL
In words: HLA class II peptide binding assay. To be noted: Table XIXb, Malaria Super Motif Peptides With Binding Data; DR1.

A further test deals with T4, DRB1*0701 (DR7) (Homo sapiens, UniProt P01903+P01911, A100R/A102G/A103Q/D57E/D86V/E43K/F76Y/K127E/L162R/M171V/P40G/Q125H/Q99D/R33Q/R42Y/R54Q/S133A/S66F/T210M/V115G/Y107V/Y59L/Y89S).
T4 construct: endogenous in cells; host or cells: Pitout
In words: biochemical. Type of test: binding.

A further test deals with T5, DRB1*0401 (DR4w4) (Homo sapiens, UniProt P01903+P01911, A100K/A169T/F76Y/I96L/K127E/L162R/M171V/N62H/P40V/Q125Y/R42H/S133A/S149N/S66Y/V115G/V209L/W38E).
T5 construct: endogenous in cells; host or cells: Preiss
T5 sequence (P01903 26-254 partner, other chains not shown): as above
In words: HLA class II peptide binding assay. To be noted: for DR4w4 binding data: Table XIXb.

The next test addresses T6, DRB1*1201 (DR5w12) (Homo sapiens, UniProt P01903+P01911, A100R/A169T/D57E/D86V/F55L/H45Y/K41T/L162R/M171V/P40S/Q125H/Q178H/Q39Y/Q99D/R42G/S66L/T262R/V114A/V67L/W38E/Y59H/Y61H/Y89S).
T6 construct: endogenous in cells; host or cells: Herluf
In words: HLA class II peptide binding assay. To be noted: Table XIXb; DR5w12.

For another test, the target named is T7, DRB1*0802 (DR8w2) (Homo sapiens, UniProt P01903+P01911, A100R/A103L/A169T/F76Y/H45Y/I96F/K41T/L162R/M171V/P40S/Q125H/Q178H/Q39Y/Q99D/R218S/R42G/S66Y/V115G/W38E).
T7 construct: endogenous in cells; host or cells: OLL
In words: biochemical. Format: binding.

[1] abbreviates: DR3a motif peptides, exemplary 15-mer containing the core sequence.
[2] abbreviates: HLA-A*0301 binding value, unit not given.
[3] abbreviates: binding value to HLA-A*0301, unit not given.
Where [4] appears, read: binding value for HLA-A*0301, unit not given.

LFVEALFQE registered a DR3 binding information in the test with DRB1*0301 (DR3) (setting [1]) of 0.0051.
LGEEDKDLD registered a DR3 binding information with DRB1*0301 (DR3) (Malaria DR3b motif peptides) of -0.0130.
On to LHSDASKNK, for which the DR3 binding information with DRB1*0301 (DR3) (setting [1]) is recorded as -0.0033.
Regarding LLIFHINKGK, the “A*301 (binding data)” value with HLA-A*0301 (binding value, no unit given) is on record as 0.0260.
Regarding LLIFNINGK, the “A*0301 (binding information)” value at HLA-A*0301 (setting [2]) was 0.0260.
LPQDNRGNS: the DR3 binding information with DRB1*0301 (DR3) (Malaria DR3b motif peptides) was -0.0033.
With LSEEKIKKG, in the test with DRB1*0301 (DR3) (setting [1]), the DR3 binding information is recorded as -0.0033.
For LSFINSYEKTK, the “A*0301 (binding information)” value with HLA-A*0301 (setting [2]) is given as 0.0004.
Consider LSTEWSPCS, for which, in the test with DRB1*0301 (DR3) (setting [1]), the DR3 binding information is given as -0.0033.
Consider LVGCHPSDOK (LVGCHPSDGK), for which the “A*0301 (binding information)” value with HLA-A*0301 (setting [3]) came to 0.0004.
Sequence LVTVFLIFF registered a DR1 binding data in the test with DRB1*0101 (DR1) of 0.0001. For the same sequence, in the test with DRB1*0701 (DR7), the DR7 binding data is reported as 0.0010. In addition, in the test with DRB1*0401 (DR4w4), the DR4w4 binding data is 0.0030.
The sequence LYNELEMNY displayed a DR3 binding information with DRB1*0301 (DR3) (setting [1]) of 0.0270.
MTTNVEGR: the “A*0301 (binding information)” value in the test with HLA-A*0301 (setting [2]) came out at 0.0002.
For MTTNVEGRR, in the test with HLA-A*0301 (setting [2]), the “A*0301 (binding information)” value is 0.0002.
Take NIRVLNELNY: the “A*0301 (binding information)” value with HLA-A*0301 (setting [4]) is reported as 0.0005.
As to NSEKDETIK, the “A*301 (binding data)” value with HLA-A*0301 (binding value, no unit given) amounted to 0.0002.
Regarding NSEKDFIKK, the “A*0301 (binding information)” value with HLA-A*0301 (setting [2]) is given as 0.0002.
Same read-out and setting: under NSRNRKNEEK stands 0.0004.
As to NTEKGFHPFK, the “A*0301 (binding information)” value with HLA-A*0301 (setting [4]) is 0.0047.
Regarding QSKLEQERR, the “A*301 (binding data)” value with HLA-A*0301 (binding value, no unit given) is recorded as 0.0002.
Take QSQDNNONRH (QSQDNNGNRH): in the test with HLA-A*0301 (setting [3]), the “A*0301 (binding information)” value worked out at 0.0004.
Take QVRICHLNDR: the “A*0301 (binding information)” value in the test with HLA-A*0301 (setting [3]) amounted to 0.0005.
As for RINEEKNEKK, in the test with HLA-A*0301 (setting [2]), the “A*0301 (binding information)” value is given as 0.0024.
On to SDASICNKEK, for which the “A*0301 (binding information)” value in the test with HLA-A*0301 (setting [3]) is given as 0.0005.
Consider VDESEDITK, for which the “A*0301 (binding information)” value in the test with HLA-A*0301 (setting [2]) was 0.0002.
As for VEVNKRKSK, in the test with DRB1*0301 (DR3) (Malaria DR3b motif peptides), the DR3 binding information came out at 0.0880.
As to VGLVLYNIEK, in the test with HLA-A*0301 (setting [4]), the “A*0301 (binding information)” value was found to be 0.0005.
VLDNERKQS: the DR3 binding information with DRB1*0301 (DR3) (Malaria DR3b motif peptides) was -0.0130.
As for VLNELNYDN, in the test with DRB1*0301 (DR3) (setting [1]), the DR3 binding information was -0.0033.
For VLYNIEKGRH, the “A*0301 (binding information)” value with HLA-A*0301 (setting [4]) came to 0.0029.
For the sequence VLYNTEKGRS, the “A*301 (binding data)” value with HLA-A*0301 (binding value, no unit given) came out at 0.0110.
On to VNKEKEKFI, for which the DR3 binding information with DRB1*0301 (DR3) (setting [1]) is given as -0.0033.
Take VPCGKGTISR: the “A*301 (binding data)” value with HLA-A*0301 (Table IX) was 0.0004.
Consider VPSDVPKNP, for which the DR4w4 binding information with DRB1*0401 (DR4w4) (DR3a motif peptides, unit not given, exemplary 15-mer containing the core sequence) is -0.0130.
In the test with DRB1*0301 (DR3) (setting [1]), VQYDNFQDE showed a DR3 binding information of -0.0033.
Regarding VTPEQPQGD, the DR3 binding information with DRB1*0301 (DR3) (setting [1]) is -0.0033.
YAGEPAPFD: the DR3 binding information with DRB1*0301 (DR3) (setting [1]) is -0.0130.
YKFVVPGAA: the DR5w12 binding data with DRB1*1201 (DR5w12) worked out at 0.3500. This sequence showed a DR8w2 binding data in the test with DRB1*0802 (DR8w2) of 2.5000. In the test with DRB1*0401 (DR4w4), this sequence returned a DR4w4 binding data of 1.0000.
Regarding YKNDKQVNK, the DR3 binding information with DRB1*0301 (DR3) (setting [1]) was -0.0033.
YREEVCNDE displayed a DR3 binding information in the test with DRB1*0301 (DR3) (setting [1]) of -0.0033.
